Reference: publication PMC9880023

Target: HA-NRX1βS4(−), expressed on COS-7 cells
Test: cell-based competitive binding assay (fluorescence microscopy); COS-7 cells expressing HA-NRX1βS4(−); biotin-AβOs fixed at 100 nM monomer equivalent, SorCS1-Fc varied 0–1,500 nM; 1 h at 4°C

IC50: 92.8 nM
B1: SorCS1 ectodomain tagged with human immunoglobulin Fc region (SorCS1-Fc) (Fc fusion)
chain: SLSCCPPQHPSSTPRRTLTPRGFPHPGPLGRAPATPPPLFMRPLFAVAPGDRALFLERAGGSRVSVATAARSGRRRRSGTEPEKIEPGEGASRSRRDMLKDGGQQGLGTGARDPGKATRFRMEELRLTSTTFALTGDSAHNQAMVHWSGHNSSVILILTKLYDYNLGSITESSLWRSTDYGTTYEKLNDKVGLKTILSYLYVCPTNKCKIMLLTDPEIESSLLISSDEGATYQKYRLNFYLQSLLFHPKQEDWILAYSQDQKLYSSAEFGRRWQLIQESVVPNRFYWSVMGSSKEPDLVHLEARTVDGHSIYLTCRMQNCTEANRNKPFPGYIDPDSLIVQDDYVFVQLTSGGRPHYYVSYRRSPFAQMKLPKYALPKDMHVISTDENQVFAAVQEWNQNDTYNLYISDTRGVYFTLALENVRSSRGPEGNVMIDLYEVAGIKGMFLANKKIDNQVKTFITYNKGRDWRLLQAPDADLRGDPVHCLLPYCSLHLHLKVSENPYTSGIIASRDTAPSIIVASGNIGSELSDSDISMFVSSDAGNTWRQIFEEEHSILYLDQGGVLVAMKHTSLPIRHLWLSFDEGRSWSKYSFTSIPLFVDGVLGEPGEETLIMTVFGHFSHRSEWQLVKVDYKSIFDRRCAEEDYRPWQLHSQGEACIMGAKRIYKKRKSERKCMQKYAGAMESEPCVCTEADFDCDYGYERHSNGQCLPAFWFNPSSLSKDCSLGQSYLNSAGYRKVVSNNCTDGVREQYTAKPQKCPGKAPRGLRIVTADGKLTAEQGHNVTLMVQLEEGDVQRTLIQVDFGDGIAVSYVNLSSMEDGIKHVYQNVGIFRVTVQVDNSLGSDSAVLYLHVTCPLEHVHLSLPFVTTKNKEVNATAVLWPSQVGTLTYVWWYGNNTEPLITLEGSISFKFTSEGMNTITVQVSAGNAILQDTKTIAVYEEFRSLRLAFSPNLDDYNPDIPEWRRDISRVIKKSLVEATGIPSQHILVAVLPGLPTAAELFVLPYQDGTRENKRSPEDLEQISEVLIHKLNQNLVHFELKPGVQVLVHAAHLTAAPLVDLTPTHS
